From patent US20100120063A1, “GPCR Arrestin Assays” (DISCOVERX CORPORATION, priority 2008, published 2010)

Columns and labels:
[1] = molecular target: T1, OPRM1-PK (Homo sapiens, UniProt P35372); test: Arrestin-EA EFC agonist assay, U2OS cells expressing OPRM1-PK only; assay type: cell-based; conditions: U2OS OPRM1-PK only
T1 construct: PK (beta-galactosidase ED); expressed in transfected cells; host or cells: U2OS
Method: (§1) For all assays, 10,000 cells per well were seeded in 20 μL media and incubated overnight in 1% Fetal Bovine Serum and appropriate basal media (F-12 or DMEM). For agonist assays, 5 μL compound was added to cells and incubated at Room Temp. […] Arrestin-EA complex formation with the GPCR was detected with 50% (v/v) of PathHunter Detection Reagent (Dx 93-0001, PathHunter reagents are available from DiscoveRx, Corp., Fremont, Calif.) (Lysis buffer active ingredient 2% CHAPS, Emerald II and Galacton star are from Applied Biosystems.) Data was read on Packard Victor 2 or PerkinElmer ViewLux readers and analyzed using GraphPad Prism 4.

[2] = molecular target: T2, OPRM1-PK and PROKR2 (Homo sapiens, UniProt Q8NFJ6); test: Transactivation assay, U2OS cells co-expressing OPRM1-PK and PROKR2 (FIG. 14C); assay type: cell-based
T2 construct: expressed in transfected cells; host or cells: U2OS
T2 sequence (Q8NFJ6 whole entry, species assumed): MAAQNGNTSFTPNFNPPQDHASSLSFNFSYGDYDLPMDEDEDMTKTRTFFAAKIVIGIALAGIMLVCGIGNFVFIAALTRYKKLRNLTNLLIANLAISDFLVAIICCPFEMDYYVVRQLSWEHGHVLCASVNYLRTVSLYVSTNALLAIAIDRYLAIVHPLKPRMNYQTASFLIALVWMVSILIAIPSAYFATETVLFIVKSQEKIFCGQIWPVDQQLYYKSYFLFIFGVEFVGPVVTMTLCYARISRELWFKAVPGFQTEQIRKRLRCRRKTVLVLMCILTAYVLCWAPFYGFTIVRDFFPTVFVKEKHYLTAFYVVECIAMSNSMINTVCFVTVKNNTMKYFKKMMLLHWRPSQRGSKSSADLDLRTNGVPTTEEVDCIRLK
Method: as §1

T1 sequence (P35372 whole entry): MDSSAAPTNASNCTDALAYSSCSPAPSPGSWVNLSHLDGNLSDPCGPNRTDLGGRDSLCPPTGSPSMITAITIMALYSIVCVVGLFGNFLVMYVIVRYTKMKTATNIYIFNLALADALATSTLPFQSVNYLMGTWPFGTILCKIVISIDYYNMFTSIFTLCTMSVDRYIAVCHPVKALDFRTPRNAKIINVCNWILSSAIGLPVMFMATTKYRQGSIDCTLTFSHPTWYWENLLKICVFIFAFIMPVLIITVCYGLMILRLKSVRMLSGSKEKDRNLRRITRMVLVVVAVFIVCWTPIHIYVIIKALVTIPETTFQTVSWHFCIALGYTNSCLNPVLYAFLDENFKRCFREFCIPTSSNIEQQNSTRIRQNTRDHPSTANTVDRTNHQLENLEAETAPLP

B1: EG-VEGF: PROKR2 ligand, EG-VEGF/prokineticin (protein)
chain: AVITGACERDVQCGAGTCCAISLWLRGLRMCTPLGREGEECHPGSHKVPFFRKRKHHTCPCLPNLLCSRFPDGRYRCSMDLKNINF
With B1 the EC50 [1] was 32.1 nM, the HILLSLOPE [1] was 1.011 and the BOTTOM ([1]; curve fit, signal) was 25.82. For the same molecule, the TOP ([1]; curve fit, signal) was 57.34, the LOGEC50 ([1]; log of EC50, negative sign as printed) was −7.493 and the EC50 ([2]; FIG. 14C) was 52.2 nM. The HILLSLOPE ([2]; FIG. 14C) was 1.328, the “transactivation response” value ([2]; OPRM1-PK and PROKR2 coexpressed) was “weak response” and the BOTTOM ([2]; curve fit, signal, FIG. 14C) was 294.3. For the same molecule, the TOP ([2]; curve fit, signal, FIG. 14C) was 9875 and the LOGEC50 ([2]; log of EC50, negative sign as printed, FIG. 14C) was −7.282.
